Test results reported in patent US20150313990A1.

What was measured:
[1] = biological target: native HIV-1 BaL envelope trimers on the surface of persistently infected human T cells (PM1) (HIV-1 BaL)
[2] = biological target: native HIV-1 BaL envelope trimers on the surface of persistently infected human T cells (PM1) (HIV-1 BaL); experiment: flow cytometry on infected PM1 cells pre-incubated with control buffer, PE anti-human IgG; panel header 'PM1 HT-pg9 25'
[3] = biological target: native HIV-1 BaL envelope trimers on the surface of persistently infected human T cells (PM1) (HIV-1 BaL); experiment: flow cytometry on infected PM1 cells pre-incubated with sCD4 5 µg/ml (competitor, two-domain by the panel header) before PG9
[4] = biological target: BaL Pro 2.0 (HIV-1 BaL gp160 with a proline inserted between Tyr 173 and Ala 174) on HeLa cells (HIV-1 BaL)
[5] = biological target: wild-type full-length HIV-1 BaL envelope glycoprotein gp160 expressed on the surface of HeLa cells (untreated) (HIV-1 BaL)

Substance: monoclonal antibody PG9 (directed to the α-helix-containing region of V2; trimer-preferring)
- MFI [1]: 2220
- Mean fluorescence intensity (MFI) [2]: 5210
- change of the MFI with sCD4 [3]: -58%

Substance: NC human
- Geom. Mean, Comp-PE-A [4]: 129
- Geom. Mean, Comp-PE-A (ΔV1V2): 152
- Geom. Mean, Comp-PE-A [5]: 139

Substance: antibody 48d (CD4-induced epitope)
- Geom. Mean, Comp-PE-A [4]: 244
- Geom. Mean, Comp-PE-A (ΔV1V2): 240
- Geom. Mean, Comp-PE-A [5]: 484
